Results taken from the supplement of paper PMC12338614.
± gives the uncertainty stated by the source.

B1: library; numbered along this chain (parent)
chain: MEVVDPQQLGMFTEGELMSVGMDTFIHRIDSTEVIYQPRRKRAKLIGKYLMGDLLGEGSYGKVKEVLDSETLCRRAVKILKKKKLRRIPNGEANVKKEIQLLRRLRHKNVIQLVDVLYNEEKQKMYMVMEYCVCGMQEMLDSVPEKRFPVCQAHGYFCQLIDGLEYLHSQGIVHKDIKPGNLLLTTGGTLKISDLGVAEALHPFAADDTCRTSQGSPAFQPPEIANGLDTFSGFKVDIWSAGVTLYNITTGLYPFEGDNIYKLFENIGKGSYAIPGDCGPPLSDLLKGMLEYEPAKRFSIRQIRQHSWFRKKHPPAEAPVPIPPSPDTKDRWRSMTVVPYLEDLHGADEDEDLFDIEDDIIYTQDFTVPGQVPEEEASHNGQRRGLPKAVCMNGTEAAQLSTKSRAEGRAPNPARKACSASSKIRRLSACKQQ

Variants of: B1
Experiment: STK11 functional score (HeLa growth suppression), rescaled enrichment; synonymous median = 1, nonsense median = 0 (normalised score)
Conditions: with HeLa; variant type: missense
Method: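 Deep mutational scan (TileSeq/POPCode codon randomisation) of full-length codon-optimised STK11 cDNA integrated at a Bxb1 landing pad (AAVS1) in HeLa cells. Restoring functional STK11 suppresses HeLa proliferation. Variant frequencies were measured by NGS before and after about two weeks of growth. The error-corrected enrichment log-ratio was rescaled so that synonymous median = 1 and nonsense median = 0, scores above 1 were compressed, and codon-level and three biological replicate scores were combined; error is the bootstrapped standard error. Scale: synonymous median = 1, nonsense median = 0; below 0.5 = damaging.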

STK11 functional score: each site, then its substitutions
M11: L 1.52 ± 0.23; W 1.71 ± 0.11; V 1.55 ± 0.48; K 1.32 ± 0.44; S 1.33 ± 0.41; C 1.69 ± 0.36; T 1.23 ± 0.65; G 1.4 ± 0.54
I29: G 1.16 ± 0.8; C 1.41 ± 0.41; V 1.68 ± 0.14; R 1.14 ± 0.18; Y 1.12 ± 0.28; H 0.0412 ± 0.14; T 0.53 ± 0.082; N 1.49 ± 0.75; M 0.901 ± 0.47; W 1.63 ± 0.21; L 1 ± 0.15; S 1.32 ± 0.17; E 1.4 ± 0.7; F 0.117 ± 0.076
V20: I 1.22 ± 0.31; G 1.43 ± 0.12; S 1.46 ± 0.22; C 0.242 ± 0.13; H 1.44 ± 0.17; D 1.59 ± 0.14; L 0.787 ± 0.15; P 1.43 ± 0.45; A 1.29 ± 0.21; T 1.6 ± 0.17; R 1.56 ± 0.14
R28: I 1.41 ± 0.49; C 0.873 ± 0.22; G 0.685 ± 0.16; P 0.47 ± 0.12; V 1.03 ± 0.29; W 1.18 ± 0.092; L 0.637 ± 0.15; A 1.52 ± 0.34; S 1.59 ± 0.13
E16: C 1.38 ± 0.69; Q 1.16 ± 0.77; L 1.15 ± 0.29; S 1.39 ± 0.17; K 0.291 ± 0.28; A 1.53 ± 0.46; F 1.42 ± 0.42
T13: I 1.01 ± 0.37; S 0.282 ± 0.092; F 1.25 ± 0.15; R 1.08 ± 0.37; V 1.6 ± 0.25; W 0.14 ± 0.079; A 1.5 ± 0.23; P 1.58 ± 0.38; L 0.906 ± 0.11; G 0.27 ± 0.17; C 1.59 ± 0.25; K 0.0631 ± 0.2
V34: C 0.884 ± 0.4; I 1.1 ± 0.34; G 1.08 ± 0.45; A 1.03 ± 0.57; Y 1.05 ± 0.13; F 0.976 ± 0.2; S 1.29 ± 0.16; L 1.13 ± 0.19; D 0.585 ± 0.37; R 0.822 ± 0.17
I26: M 1.63 ± 0.33
E33: F 0.855 ± 0.23; M 1.44 ± 0.2; P 1.4 ± 0.33; G 0.902 ± 0.25; N 1.33 ± 0.15; D 1.09 ± 0.39; A 1.32 ± 0.2; C 1.11 ± 0.49; I 0.611 ± 0.19; T 1.69 ± 0.25; V 0.509 ± 0.087; S 0.81 ± 0.15; W 0.795 ± 0.09; Y 1.21 ± 0.2; L 1 ± 0.13
T32: P 1.48 ± 0.37; G 1.45 ± 0.23; I 0.842 ± 0.13; A 1.66 ± 0.13; Y 0.666 ± 0.85; S 1.45 ± 0.21; V 1.41 ± 0.54; L 1.16 ± 0.37; H 1.68 ± 0.17; K 0.829 ± 0.21; R 1.36 ± 0.36; W 1.52 ± 0.2
M22: F 1 ± 0.23; R 1.65 ± 0.38; W 0.633 ± 0.55; C 1.21 ± 0.38; P 1.54 ± 0.16; S 1.68 ± 0.34; A 1.21 ± 0.85; V 1.13 ± 0.69; T 1.63 ± 0.51; Y 1.57 ± 0.096; G 1.07 ± 0.099; H 1.67 ± 0.21
F25: I 1.69 ± 0.52; C 1.63 ± 0.46
Y36: N 1.6 ± 0.22; D 1.27 ± 0.22; C 1.11 ± 0.25; G 1.55 ± 0.11; F 0.511 ± 0.078; M 0.892 ± 0.31; V 0.824 ± 0.12; T 1.04 ± 0.72; W -0.265 ± 0.082; S 0.558 ± 0.26; I 1.03 ± 0.17; K 1.23 ± 0.15; L 1.03 ± 0.23; A 0.73 ± 0.18; H 1.39 ± 0.48; R 1.3 ± 0.59
D30: V 0.22 ± 0.12; P 1.67 ± 0.17; H 1.31 ± 0.68; C 1.44 ± 0.51; A 1.7 ± 0.28; W 1.3 ± 0.58; T 1.62 ± 0.21; Y -0.0227 ± 0.33; E 1.13 ± 0.49; L 1.07 ± 0.12; S 1.7 ± 0.19; G 1.52 ± 0.3; R 1.69 ± 0.13
E14: V 1.03 ± 0.29; L 1 ± 0.14; W 0.426 ± 0.6; P 1.65 ± 0.34; Q 1.35 ± 0.3; I 1.4 ± 0.14; A 0.905 ± 0.29; M 1.62 ± 0.18; Y 1.34 ± 0.49; K 0.385 ± 0.59; F 1.13 ± 0.088; D 1.22 ± 0.3; S 1.34 ± 0.15
H27: D 1.22 ± 0.62; W 0.807 ± 0.27; Q 0.792 ± 0.18; Y 1.24 ± 0.73; A 1.19 ± 0.11; S 0.805 ± 0.23; R 1.03 ± 0.18; L 1.35 ± 0.19; P 1.35 ± 0.35; M 1.63 ± 0.12; G 1.54 ± 0.21; I 0.637 ± 0.096; V 1.05 ± 0.12
I35: S 1.49 ± 0.2; A 1.43 ± 0.11; M 0.908 ± 0.52; V 0.925 ± 0.11; C 1.39 ± 0.25; L 1.11 ± 0.1; F 0.949 ± 0.091; N 1.02 ± 0.76; T 1.34 ± 0.71; G 1.25 ± 0.57; R 1.61 ± 0.21; D 1.67 ± 0.17; E 1.66 ± 0.16; P 1.69 ± 0.16; W 1.61 ± 0.3
G21: R 1.2 ± 0.64; A 1.39 ± 0.38
S19: K 1.53 ± 0.39; I 1.34 ± 0.41; P 1.32 ± 0.23; L 0.775 ± 0.094; A 0.891 ± 0.38; G 1.64 ± 0.2; V 0.694 ± 0.18; R 0.749 ± 0.093; W 1.43 ± 0.4; E 1.45 ± 0.34; H 0.00479 ± 0.13; Y 1.01 ± 0.15; F 0.945 ± 0.12
L9: R 1.12 ± 0.2; P 1.43 ± 0.21; Y 1.56 ± 0.37; N 1.67 ± 0.14; W 1.49 ± 0.16; V 0.506 ± 0.58; M 1.01 ± 0.32; S 1.37 ± 0.19
L17: Y 1.6 ± 0.25; A 1.68 ± 0.37; G 1.53 ± 0.25; T 1.62 ± 0.18; W 1.56 ± 0.24; H 1.53 ± 0.16; R 1.22 ± 0.26; F 0.925 ± 0.58; P 1.6 ± 0.25; V 1.35 ± 0.12; D 1.7 ± 0.12; I 0.851 ± 0.16; M 0.968 ± 0.24; S 1.35 ± 0.55; Q 1.71 ± 0.4
S31: V 1.58 ± 0.21; F 0.829 ± 0.12; D 1.28 ± 0.37; M 0.857 ± 0.12; G 1.57 ± 0.12; W 0.921 ± 0.11; T 1.5 ± 0.11; H -0.108 ± 0.4; Q 1.37 ± 0.39; R 1.54 ± 0.28; I 1.41 ± 0.12; L 1.02 ± 0.091; Y 1.36 ± 0.18; A 1.44 ± 0.17
Q37: G 1.08 ± 0.14; H 0.921 ± 0.36; S 1.34 ± 0.13; C 0.0953 ± 0.088; L 1.15 ± 0.3; V 1.38 ± 0.15; M 1.17 ± 0.1; A 1.34 ± 0.51; N 0.934 ± 0.53; T 1.69 ± 0.12; P 1.16 ± 0.21; I 1.65 ± 0.17; R 1.34 ± 0.29; W 0.288 ± 0.12; D 1.4 ± 0.29; F 0.309 ± 0.29
T24: P 1.65 ± 0.26; L 1.18 ± 0.13; Y 1.49 ± 0.37; F 1.37 ± 0.11; R 0.782 ± 0.14; G 1.43 ± 0.13; A 1.36 ± 0.46; C 1.22 ± 0.12; W 1.6 ± 0.093; S 1.15 ± 0.41; H 1.7 ± 0.17; I 1.02 ± 0.2; V 0.875 ± 0.17
G15: P 1.66 ± 0.28; A 0.969 ± 0.36; V 1.1 ± 0.24; N 1.69 ± 0.15; L 1.48 ± 0.2; S 1.28 ± 0.12; D 1.72 ± 0.12; E 1.68 ± 0.46; Y 1.58 ± 0.29; F 1.05 ± 0.1; W 0.148 ± 0.38; R 1.4 ± 0.4; T 1.68 ± 0.17; C 1.15 ± 0.21
F12: L 1.23 ± 0.68
D23: G 1.54 ± 0.2; H 1.22 ± 0.68
G10: M 1.51 ± 0.42; C 1.4 ± 0.19; S 1.17 ± 0.092; A 1.38 ± 0.17; W 1.33 ± 0.084; D 1.4 ± 0.1; Y 1.18 ± 0.15; F 1.56 ± 0.41; V 0.971 ± 0.18; I 1.64 ± 0.13; P 1.18 ± 0.49; L 1.63 ± 0.21
R39: E -0.363 ± 0.48; G 1.04 ± 0.45; A 1.12 ± 0.42; C 0.223 ± 0.2; K 0.866 ± 0.75; D 1.19 ± 0.099; I 1.12 ± 0.38; H 1.13 ± 0.23
P38: T 0.9 ± 0.23; L 0.812 ± 0.14; A 1.06 ± 0.29; H 1.11 ± 0.58; G 0.508 ± 0.53; K 1.6 ± 0.22; S 1.06 ± 0.12; D 1.7 ± 0.3; F 1.31 ± 0.25; N 0.557 ± 0.099; M 1.09 ± 0.92; V 1.01 ± 0.095; R 0.891 ± 0.086; Q 1.58 ± 0.15; Y 0.0651 ± 0.12; E 1.36 ± 0.39; W 0.876 ± 0.077
M18: W 0.78 ± 0.076; A 1.69 ± 0.16; Q 1.28 ± 0.12; L 1.08 ± 0.34; G 1.36 ± 0.22; R 0.834 ± 0.13; H 1.37 ± 0.18; C 0.902 ± 0.4; V 0.413 ± 0.24; P 1.69 ± 0.13; S 1.31 ± 0.14; Y 1.43 ± 0.41; D 0.127 ± 0.19; E 1.56 ± 0.2; T 1.62 ± 0.27; I 0.652 ± 0.32
